{"source": "patent US20250270529", "tested_on": "T1, Cas13f v3 (v2+D160A&D642A) (synthetic construct)", "T1 sequence": "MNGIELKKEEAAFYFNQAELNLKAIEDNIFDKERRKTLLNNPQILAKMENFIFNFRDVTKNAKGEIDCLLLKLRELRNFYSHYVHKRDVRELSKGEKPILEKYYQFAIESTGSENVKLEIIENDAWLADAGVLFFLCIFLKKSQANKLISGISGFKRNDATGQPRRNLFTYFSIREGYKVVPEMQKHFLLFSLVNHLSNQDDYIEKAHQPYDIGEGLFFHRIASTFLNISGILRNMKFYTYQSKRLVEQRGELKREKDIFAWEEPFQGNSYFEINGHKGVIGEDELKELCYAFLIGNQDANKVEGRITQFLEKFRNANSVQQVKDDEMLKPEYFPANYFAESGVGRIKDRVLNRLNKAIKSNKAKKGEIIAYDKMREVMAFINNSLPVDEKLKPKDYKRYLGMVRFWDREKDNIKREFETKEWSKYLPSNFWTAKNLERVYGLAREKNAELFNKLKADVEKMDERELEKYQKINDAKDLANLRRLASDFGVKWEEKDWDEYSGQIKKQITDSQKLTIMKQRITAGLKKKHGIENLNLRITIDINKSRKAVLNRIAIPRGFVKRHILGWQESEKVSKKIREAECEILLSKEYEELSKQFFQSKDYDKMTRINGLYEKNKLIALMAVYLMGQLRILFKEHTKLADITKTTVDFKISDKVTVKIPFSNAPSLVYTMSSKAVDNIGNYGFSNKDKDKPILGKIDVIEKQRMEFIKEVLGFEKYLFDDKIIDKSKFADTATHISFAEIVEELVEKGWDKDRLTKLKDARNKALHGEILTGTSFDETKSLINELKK", "test": "cell_activity", "conditions": "HEK293T; non-targeting spacer control", "data": [{"substance": "non-targeting gRNA (DR-spacer-DR) ; mCherry reporter mRNA", "values": [{"measurement": "activity (RFP MFI (normalization reference))", "value": 1}]}]}
